Results as given in patent EP4703377A1.

B1: Clone 5 (antibody, V domains shown)
VH: QVQLQESGPGLVKPSETLSLTCTVSGVSMNSNHWSWIRQAPGKELEWIGYIYYTGKTFYNPSLQSRVTVSLDTSKNQFYLKLTSVTAADTAVYYCARRAMASVQRGILRVFDLWGQGKMVTVSS
VL: DIQMTQSPSTLSASVGDRVTITCRASQIIDKWLAWYQHKPGKAPKLLIYEASNLETGVPSRFSGSGSGTEFTLTISSLQPDDFATYFCQQYKSYLPYTFGQGTKLEIK
B2: Clone 7 (antibody, V domains shown)
VH: QVQLQESGPGLVKPSETLSLTCSVSGGPLTSSTYFWGWIRQPPGKGLEWLGSINFRGTTDNAPSLKSRVTLSIDTSTHQFSLRLSSVTAKDTAVYYCARHTQRLTVFTVVHGFDLWGQGTVVSVSS
VL: QSALTQPASVSGSPGQSITISCTGATGDIGVSDFVSWYQQHPGKAPKLIIFDVTNRPSGVSNRFSGSKSVNTASLTISGLQAEDEADYYCCLYSTRSRDWEFGGGTKLTVL
B3: Clone 6 (antibody, V domains shown)
VH: QVQLEQSGAEVKKPGSSVKVSCKASGPMFSRSAFSWVRQAPGQGLEWMGRIIPTVDLKNYAQKFQGRVTFTADKSTATSYMELRSLKSEDTAVYYCARMGSGSSYYGMDVWGLGTTVTVSS
VL: DIVMTQSPLSLPVIPGEPASISCRSSQSLLQSNGNNYLDWYLQKPGQSPQLLIYLGSNRASGVPDRFSGSGSGTDFTLTISRVEAEDVGVYYCLQARQSSVLTFGGGTKLEIK

How the values were obtained:
[1] = biological target: H3 LAH
[2] = biological target: H3 LAH; experiment: ELISA on H3 LAH at 15.625 ng/mL clone 5
[3] = biological target: Recombinant HA antigen A/Anhui/1/2013 (H7N9) (influenza A virus A/Anhui/1/2013 (H7N9)); experiment: ELISA on plate-coated recombinant HA; AUC of the absorbance (490 nm) curve
[4] = biological target: Recombinant HA antigen A/Narita/1/2009 (H1N1pdm09) (influenza A virus A/Narita/1/2009 (H1N1pdm09)); experiment: as above
[5] = biological target: Recombinant HA antigen H1, A/South Carolina/1/1918 (H1N1) (influenza A virus A/South Carolina/1/1918 (H1N1)) (UniProt Q9WFX3); experiment: as above
[6] = biological target: Recombinant HA antigen H10, A/mallard/Interior Alaska/10BM01929R0/2010 (H10N7) (influenza A virus A/mallard/Interior Alaska/10BM01929R0/2010 (H10N7)); experiment: as above
[7] = biological target: Recombinant HA antigen H11, A/northern shoveler/Netherlands/18/1999 (H11N9) (influenza A virus A/northern shoveler/Netherlands/18/1999 (H11N9)); experiment: as above
[8] = biological target: Recombinant HA antigen H12, A/mallard/Interior Alaska/7MP0167/2007 (H12N5) (influenza A virus A/mallard/Interior Alaska/7MP0167/2007 (H12N5)); experiment: as above
[9] = biological target: Recombinant HA antigen H13, A/black-headed gull/Sweden/1/1999 (H13N6) (influenza A virus A/black-headed gull/Sweden/1/1999 (H13N6)); experiment: as above
[10] = biological target: Recombinant HA antigen H14, A/mallard/Astrakhan/263/1982 (H14N5) (influenza A virus A/mallard/Astrakhan/263/1982 (H14N5)); experiment: as above
[11] = biological target: Recombinant HA antigen H15, A/shearwater/Australia/2576/1979 (H15N9) (influenza A virus A/shearwater/Australia/2576/1979 (H15N9)); experiment: as above
[12] = biological target: Recombinant HA antigen H16, A/black-headed gull/Sweden/5/99 (H16N3) (influenza A virus A/black-headed gull/Sweden/5/99 (H16N3)); experiment: as above
[13] = biological target: Recombinant HA antigen H17, A/little yellow-shouldered bat/Guatemala/060/2010 (H17N10) (influenza A virus A/little yellow-shouldered bat/Guatemala/060/2010 (H17N10)); experiment: as above
[14] = biological target: Recombinant HA antigen H18, A/flat-faced bat/Peru/033/2010 (H18N11) (influenza A virus A/flat-faced bat/Peru/033/2010 (H18N11)); experiment: as above
[15] = biological target: Recombinant HA antigen H2, A/Japan/305/57 (H2N2) (influenza A virus A/Japan/305/57 (H2N2)) (UniProt P03451); experiment: as above
[16] = biological target: Recombinant HA antigen H4, A/duck/Czechoslovakia/1956 (H4N6) (influenza A virus A/duck/Czechoslovakia/1956 (H4N6)) (UniProt P19696); experiment: as above
[17] = biological target: Recombinant HA antigen H5, A/Laos/JP127/2004 (H5N1) (influenza A virus A/Laos/JP127/2004 (H5N1)); experiment: as above
[18] = biological target: Recombinant HA antigen H6, A/mallard/Sweden/81/2002 (H6N1) (influenza A virus A/mallard/Sweden/81/2002 (H6N1)); experiment: as above
[19] = biological target: Recombinant HA antigen H8, A/mallard/Sweden/24/2002 (H8N4) (influenza A virus A/mallard/Sweden/24/2002 (H8N4)); experiment: as above
[20] = biological target: Recombinant HA antigen H9, A/guinea fowl/Hong Kong/WF10/99 (H9N2) (influenza A virus A/guinea fowl/Hong Kong/WF10/99 (H9N2)); experiment: as above
[21] = biological target: Recombinant HA antigen H3, A/Hong Kong/1/68 (H3N2) (influenza A virus A/Hong Kong/1/68 (H3N2)) (UniProt Q91MA7); experiment: as above

Row | Binder | AUC value [3] | AUC value [4] | AUC value [5] | AUC value [6] | AUC value [7] | AUC value [8] | AUC value [9] | AUC value [10] | AUC value [11] | AUC value [12] | AUC value [13] | AUC value [14] | AUC value [15] | AUC value [16] | AUC value [17] | AUC value [18] | AUC value [19] | AUC value [20] | further results
1 | B1 |  |  |  |  |  |  |  |  |  |  |  |  |  |  |  |  |  |  | titer [1]: 0.92 AU/mL; absorbance [2]: 0.877 absorbance
2 | B2 | 3260 | 3350 | 3320 | 3220 | 300 | 3340 | 1560 | 3320 | 3270 | 3200 | 3350 | 3160 | 3300 | 3250 | 3290 | 3220 | 3320 | 3240 | 
3 | B3 | 3320 | 2480 | 3360 | 3330 | 757 | 98.5 | 117 | 3360 | 3360 | 290 | 3370 | 3240 | 3310 | 3310 | 3240 | 2800 | 474 | 632 | AUC value [21]: 3300
